Test [1] deals with T1, DLK1-hFc fusion protein (extracellular region of human DLK1 fused with human Fc) (human, UniProt P80370 24-303).
T1 construct: The ELISA text says 'DLK1 protein'/'antigen DLK1' coated at 100 ng/well; also called hDLK1; DLK1 antigen
T1 sequence: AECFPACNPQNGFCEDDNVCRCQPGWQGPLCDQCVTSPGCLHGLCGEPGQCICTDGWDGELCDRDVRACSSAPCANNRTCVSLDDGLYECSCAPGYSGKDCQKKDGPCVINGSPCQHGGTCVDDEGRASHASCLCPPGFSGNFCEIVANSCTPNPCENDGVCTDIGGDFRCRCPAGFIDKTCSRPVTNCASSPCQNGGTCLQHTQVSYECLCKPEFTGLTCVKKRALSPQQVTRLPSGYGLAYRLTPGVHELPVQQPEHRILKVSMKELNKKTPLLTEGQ
Briefly: ELISA, coated DLK1 antigen, IgG titrated 100 nM to 0.046 nM, GraphPad Prism fit.

Test [2] concerns the target T2, human DLK1 present on the cell surface (DLK1-overexpressing MIA PaCa-2 cells); SK-N-F1 cells endogenously … (human, UniProt P80370 24-383).
T2 construct: whole, on cells; also called MIA PaCa-2 cells overexpressing DLK1
T2 sequence (looked up): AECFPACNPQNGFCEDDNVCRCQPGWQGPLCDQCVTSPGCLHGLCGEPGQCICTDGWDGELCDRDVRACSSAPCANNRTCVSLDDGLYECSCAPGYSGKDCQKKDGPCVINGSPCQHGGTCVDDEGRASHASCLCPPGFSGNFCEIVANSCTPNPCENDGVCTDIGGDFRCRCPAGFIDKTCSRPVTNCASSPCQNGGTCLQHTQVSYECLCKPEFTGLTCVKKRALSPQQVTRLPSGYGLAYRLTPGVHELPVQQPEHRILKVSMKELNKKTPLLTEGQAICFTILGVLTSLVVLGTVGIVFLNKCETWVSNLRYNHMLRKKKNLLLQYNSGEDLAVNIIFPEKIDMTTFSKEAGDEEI
Briefly: FACS, DLK1-overexpressing MIA PaCa-2 cells, antibody titrated 1/3 from 10 µg/ml.

Test [3] deals with T2, human DLK1 present on the cell surface …. Briefly: cell-based or functional assay.

Where a chain is given by its changes, count along the chain named.

B1: human anti-DLK1 monoclonal antibody 35E2 (antibody, V domains shown)
VH: QVQLVESGGGVVQPGRSLRLSCAASGFTFSSYAMHWVRQAPGKGLEWVAVIYSGGSTYYADSVKGRFTISRDNSKNTLYLQMNSLRAEDTAVYYCAREGSYDVMTYTRIGGYFDYWGQGALVTVSS
VL: DIQMTQSPSSVSASVGDRVTITCRASQGISDWVAWYQQKPGKAPKLLIYAASSLQSGVPSRFSGSGSGTEFSLTISNLQPEDFATYYCQQANSFPLTFGPGTKVEIK
notes: Converted from scFv to IgG
B1 showed a Kd in test [1] of 330 pM.

B2: human anti-DLK1 monoclonal antibody 18A5 (antibody, V domains shown)
VH: QVQLVQSGGAVVQPGHSLRLSCEASGFKFKDYGMHWVRQAPGKGLEWLAVISHDGRNKNYADSVKGRLTISRDNSKNTLSFQMNSLRAEDTAVYYCVRDWSYAFDIWGQGTLVTVSS
VL: DIQMTQSPSFLSASVGDRVNITCRASQDISRRLAWYQQKPGKAPKLLIYGAASLQSAVASRFSGSGSGTEFTLTISSLQPEDFANYYCQQIYTTPLTFGGGTKVEIK
notes: Converted from scFv to IgG; also called DLK1-18A5
With B2, the EC50 in test [2] was found to be 0.131 µg/mL. In test [3], the “EC50 of cytotoxicity of 18A5-Fab ZAP in DLK1-overexpressing MIA PaCa-2 cells” value was 0.002 pM. Besides, the Kd in test [1] stood at 520 pM.

B3: human anti-DLK1 monoclonal antibody variant 18A5_AM_1A12 (antibody, V domains shown)
VH: B2 VH with A10G, H16G, E23A
VL: DIQMTQSPSFLSASVGDRVTITCRASHDISSSLAWYQQKSGKAPKLLIYSASNLKSGVPSRFSGSGSGTDFSLTISSLQPEDFATYYCQQSYTTVLTFGGGTKLEIK
In the case of B3, the EC50 in test [2] turned out to be 0.0903 µg/mL. Also, the “EC50 of cytotoxicity of 18A5_AM_1A12-Fab ZAP in DLK1-overexpressing MIA PaCa-2 cells” value in test [3] is 0.0026 pM. Moreover, the Kd in test [1] was determined as 13 pM.

B4: human anti-DLK1 monoclonal antibody variant 18A5_LS_1A10 (antibody, V domains shown)
VH: B2 VH
VL: DIQMTQSPSSLSASLGDRVTITCRASQGISSALAWYQQKPGKAPKLLIYAASSLQSGVPSRFSGSGSGTDFTLTINSLQPEDFATYYCQQSYTTPLTFGGGTKVEIK
For the molecule B4, in test [2], the EC50 came to 0.12 µg/mL. In test [3], the “EC50 of cytotoxicity of 18A5_LS_1A10-Fab ZAP in DLK1-overexpressing MIA PaCa-2 cells” value turned out to be 0.0011 pM. In test [1], this molecule gave a Kd of 47 pM.

B5: human anti-DLK1 monoclonal antibody 20D3 (antibody, V domains shown)
VH: QMQLVQSGGGLVQPGRSLRLSCAASGFTFDDYAMHWVRQAPGKGLEWVSGISWNSGSIGYADSVKGRFTISRDNAKNSLYLQMNSLRAEDTAVYYCTKGPGLATGKVYFNSWGQGTQVTVSS
VL: DIQMTQSPSSVSASVGDRVTITCRASQRISSWLAWYQQKPGRAPKLLIHSASTLHNGVPSRFSGSASGTDFTLTISSLQPEDFAIYYCQQGHSFPYTFGQGTKLDIK
notes: Converted from scFv to IgG
The molecule B5 registered a Kd in test [1] of 54000 pM.

B6: human anti-DLK1 monoclonal antibody 27F7 (antibody, V domains shown)
VH: QMQLVESGGGLVKPGGSLTLSCDATGFNFGSYYMNWVRQAPGKGLEWLAHISSTGRTIYYADSVKGRFTISRDNAKSSLDLQMNSLRAEDTAVYYCARDQGYPFGMDVWGHGTTVTVSS
VL: QLVLTQPSSVSGAPGQRVTISCTGSSSNIGAGYDVDWYQQLPGTAPKLLIYGNTNRPSGVPDRFSGSKSGTSASLAITGLQAEDDSDYYCQSYDSSLSAWVFGGGTKLTVL
notes: Converted from scFv to IgG
Turning to B6, the Kd in test [1] turned out to be 220 pM.

B7: human anti-DLK1 monoclonal antibody 17B11 (antibody, V domains shown)
VH: QVQLVESGGTLVQPGGSLRLSCAASGFTFSSHAMSWVRQTPGKGLEWVSSITKSGSGTYSADSVKGRFTISRDNSKNTLYLQMNSLRAEDTAVYYCTREGLGYYYGMDVWGQGTTVTVSS
VL: QLVLTQPPSVSGAPGQRVIISCTGSSSNIGAGYDVHWYQQLPGTAPRLLIYGSTNRPSGVPDRFSGSKSGTSASLAITGLQAEDEADYYCQSYDNSLSAHYVFGTGTKVTVL
notes: Converted from scFv to IgG (pNATVH/pNATVL, HEK293E)
Regarding B7, in test [1], the Kd amounted to 7190 pM.

The record behind these values is patent publication US20210214432A1 (Y BIOLOGICS, published 2021).
